From paper PMC8442969 come the findings set out here.

Common to all, as to experiment: NMR titration
Test [1] has as its target human DSS1 (Deletion of Split-hand/Split-foot 1), GST tag removed (human).
For test [2], the target named is human CSNAP (CSN Acidic Protein), GST tag removed (human).
Test [3] addresses human mono-ubiquitin, N-terminally 6xHis tagged (made in house, for NMR) (human) (UniProt P0CG48).

For “human mono-ubiquitin, N-terminally 6xHis tagged (made in house, for NMR) (from UniProt P0CG48 1-76) (natural protein)”, in test [1], the KD of site UBS2 (apparent) worked out at 1800 µM. Further, in test [2], the KD(app), first of two groups of residues was found to be 800 µM and the KD(app), second of two groups of residues stood at 2000 µM.

As for “human DSS1 (Deletion of Split-hand/Split-foot 1), GST tag removed (natural protein)”, the Kd in test [3] stood at 430 µM.
